Patent US20220112296A1 (Chugai, published 2022)

T1: Human CD3eg linker (human)
T1 construct: CD3 epsilon and gamma subunits joined by a 29-mer linker, C-terminal Flag-tag (in the entry); also called recombinant human CD3
T1 chain: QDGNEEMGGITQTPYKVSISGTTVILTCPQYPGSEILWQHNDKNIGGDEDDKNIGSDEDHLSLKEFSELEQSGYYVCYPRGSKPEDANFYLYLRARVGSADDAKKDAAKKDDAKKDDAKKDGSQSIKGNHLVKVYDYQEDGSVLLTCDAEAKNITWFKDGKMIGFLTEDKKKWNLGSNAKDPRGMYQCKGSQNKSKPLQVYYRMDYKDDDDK


Assays:
[1] = target: human CD137 (4-1BB) on cells (human, UniProt Q07011 24-255); experiment: cell-based or functional assay
[2] = target: T2, Human CD137 ECD (human); experiment: SPR Biacore T200, 37 C, Ab captured
T2 construct: C-terminal His-tag and biotin acceptor peptide are in the entry; also called human CD137 extracellular domain; recombinant human CD137
Protocol: (§1) Anti-human Fc (GE Healthcare) was immobilized onto all flow cells of a CM4 sensor chip using amine coupling kit (GE Healthcare). […] All antibodies and analytes were prepared in ACES pH 7.4 containing 20 mM ACES, 150 mM NaCl, 0.05% Tween 20, 0.005% NaN3. Sensor surface was regenerated each cycle with 3M MgCl2.

[3] = target: T1, Human CD3eg linker; experiment: SPR Biacore T200, 25 C, Ab captured
Protocol: as §1

Sequence of human CD137 (4-1BB) on cells (Q07011 24-255): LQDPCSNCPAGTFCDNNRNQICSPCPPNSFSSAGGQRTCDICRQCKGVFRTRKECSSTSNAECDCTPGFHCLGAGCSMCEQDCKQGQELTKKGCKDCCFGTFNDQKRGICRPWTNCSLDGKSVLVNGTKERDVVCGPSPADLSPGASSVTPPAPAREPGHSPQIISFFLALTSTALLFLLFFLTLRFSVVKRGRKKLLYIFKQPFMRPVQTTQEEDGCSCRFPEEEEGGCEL
T2 sequence (chain, as listed by the source limits assumed): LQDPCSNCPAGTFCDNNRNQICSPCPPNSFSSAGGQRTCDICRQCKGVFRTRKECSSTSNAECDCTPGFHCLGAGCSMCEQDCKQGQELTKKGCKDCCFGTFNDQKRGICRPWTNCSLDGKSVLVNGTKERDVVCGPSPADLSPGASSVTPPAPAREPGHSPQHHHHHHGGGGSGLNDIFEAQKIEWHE

Row | Binder | Kd [2] | Kd [3] | other results
1 | GPC3 ERY22-dBBDu_189/L116 (bispecific antibody, human IgG1, kappa, L234A L235A, N297A) heavy 1: DIVMTQSPLSLPVTPGEPASISCRSSQSLVHSNRNTYLHWYQQKPGQAPRLLIYKVSNRFSGVPDRFSGSGSGTDFTLKISRVEAEDVGVYYCSQNTHVPPTFGQGTKLEIKSSASTKGPSVFPLAPSSKSTSGGTAALGCLVKDYFPEPVTVSWNSGALTSGVHTFPAVLQSSGLYSLSSVVTVPSSSLGTQTYICNVNHKPSNTKVDKKVEPKSCDKTHTCPPCPAPEAAGGPSVFLFPPKPKDTLMISRTPEVTCVVVDVSHEDPEVKFNWYVDGVEVHNAKTKPREEQYASTYRVVSVLTVLHQDWLNGKEYKCKVSNKALPAPIEKTISKAKGQPREPQVCTLPPSRDELTKNQVSLWCLVKGFYPSDIAVEWESNGQPENNYKTTPPVLDSDGSFFLYSKLTVDKSRWQQGNVFSCSVMHEALHNHYTQKSLSLSPHHHHHHHH light 1: QVQLVQSGAEVKKPGASVKVSCKASGYTFTDYEMHWIRQPPGQGLEWIGAIDPKTGDTAYSQKFKGRVTLTADKSTSTAYMELSSLTSEDTAVYYCTRFYSYTYWGQGTLVTVSSASVAAPSVFIFPPSDEQLKSGTASVVCLLNNFYPREAKVQWKVDNALQSGNSQESVTEQDSKDSTYSLSSTLTLSKADYEKHKVYACEVTHQGLSSPVTKSFNRGEC heavy 2: QVQLVESGGGLVQPGRSLRLSCAASGFTFSNAWMHWVRQAPGKGLEWIAQIKDRSNQYATYYAPSVKGRFTISRDDSKNSIYLQMNSLKTEDTAVYYCHYVHYAQASSLLPSFGVDAWGQGTTVTVSSASTKGPSVFPLAPSSKSTSGGTAALGCLVKDYFPEPVTVSWNSGALTSGVHTFPAVLQSSGLYSLSSVVTVPSSSLGTQTYICNVNHKPSNTKVDKKVEPKSCDKTHTCPPCPAPEAAGGPSVFLFPPKPKDTLMISRTPEVTCVVVDVSHEDPEVKFNWYVDGVEVHNAKTKPREEQYASTYRVVSVLTVLHQDWLNGKEYKCKVSNKALPAPIEKTISKAKGQPREPQVYTLPPSRCELTKNQVSLSCAVKGFYPSDIAVEWESNGQPENNYKTTPPVLDSDGSFFLVSKLTVDKSRWQQGNVFSCSVMHEALHNHYTQKSLSLSPDYKDDDDK light 2: DIVMTQSPLSLPVTPGEPASISCSSSQELVHANRQIYLHWYQQKPGQAPRLLIYKVANRFPGVPDRFSGSGSGTDFTLKISRVEAEDVGVYYCAQGTQVPFTFGQGTKLEIKRTVAAPSVFIFPPSDEQLKSGTASVVCLLNNFYPREAKVQWKVDNALQSGNSQESVTEQDSKDSTYSLSSTLTLSKADYEKHKVYACEVTHQGLSSPVTKSFNRGEC | – | – | Agonistic activity compared to B, 6 ug/mL [1]: 8.28%; Agonistic activity compared to B, 30 ug/mL [1]: 19.2%; Agonistic activity compared to Ctrl, 6 ug/mL [1]: 28.7%; Agonistic activity compared to Ctrl, 30 ug/mL [1]: 72.9%; hIL-6 (pg/mL), 6 ug/mL antibody [1]: 1300 pg/mL; hIL-6 (pg/mL), 30 ug/mL antibody [1]: 1570 pg/mL
2 | GPC3 ERY22-dBBDu_189/L119 (bispecific antibody, human IgG1, kappa, L234A L235A, N297A) heavy 1: DIVMTQSPLSLPVTPGEPASISCRSSQSLVHSNRNTYLHWYQQKPGQAPRLLIYKVSNRFSGVPDRFSGSGSGTDFTLKISRVEAEDVGVYYCSQNTHVPPTFGQGTKLEIKSSASTKGPSVFPLAPSSKSTSGGTAALGCLVKDYFPEPVTVSWNSGALTSGVHTFPAVLQSSGLYSLSSVVTVPSSSLGTQTYICNVNHKPSNTKVDKKVEPKSCDKTHTCPPCPAPEAAGGPSVFLFPPKPKDTLMISRTPEVTCVVVDVSHEDPEVKFNWYVDGVEVHNAKTKPREEQYASTYRVVSVLTVLHQDWLNGKEYKCKVSNKALPAPIEKTISKAKGQPREPQVCTLPPSRDELTKNQVSLWCLVKGFYPSDIAVEWESNGQPENNYKTTPPVLDSDGSFFLYSKLTVDKSRWQQGNVFSCSVMHEALHNHYTQKSLSLSPHHHHHHHH light 1: QVQLVQSGAEVKKPGASVKVSCKASGYTFTDYEMHWIRQPPGQGLEWIGAIDPKTGDTAYSQKFKGRVTLTADKSTSTAYMELSSLTSEDTAVYYCTRFYSYTYWGQGTLVTVSSASVAAPSVFIFPPSDEQLKSGTASVVCLLNNFYPREAKVQWKVDNALQSGNSQESVTEQDSKDSTYSLSSTLTLSKADYEKHKVYACEVTHQGLSSPVTKSFNRGEC heavy 2: QVQLVESGGGLVQPGRSLRLSCAASGFTFSNAWMHWVRQAPGKGLEWIAQIKDRSNQYATYYAPSVKGRFTISRDDSKNSIYLQMNSLKTEDTAVYYCHYVHYAQASSLLPSFGVDAWGQGTTVTVSSASTKGPSVFPLAPSSKSTSGGTAALGCLVKDYFPEPVTVSWNSGALTSGVHTFPAVLQSSGLYSLSSVVTVPSSSLGTQTYICNVNHKPSNTKVDKKVEPKSCDKTHTCPPCPAPEAAGGPSVFLFPPKPKDTLMISRTPEVTCVVVDVSHEDPEVKFNWYVDGVEVHNAKTKPREEQYASTYRVVSVLTVLHQDWLNGKEYKCKVSNKALPAPIEKTISKAKGQPREPQVYTLPPSRCELTKNQVSLSCAVKGFYPSDIAVEWESNGQPENNYKTTPPVLDSDGSFFLVSKLTVDKSRWQQGNVFSCSVMHEALHNHYTQKSLSLSPDYKDDDDK light 2: DIVMTQSPLSLPVTPGEPASISCTASQELVHINRFIFLHWYQQKPGQAPRLLIYKVSNRFIGVPDRFSGSGSGTDFTLKISRVEAEDVGVYYCAQGSQVPFTFGQGTKLEIKRTVAAPSVFIFPPSDEQLKSGTASVVCLLNNFYPREAKVQWKVDNALQSGNSQESVTEQDSKDSTYSLSSTLTLSKADYEKHKVYACEVTHQGLSSPVTKSFNRGEC | – | – | Agonistic activity compared to B, 6 ug/mL [1]: 6.92%; Agonistic activity compared to B, 30 ug/mL [1]: 20.4%; Agonistic activity compared to Ctrl, 6 ug/mL [1]: 24%; Agonistic activity compared to Ctrl, 30 ug/mL [1]: 77.3%; hIL-6 (pg/mL), 6 ug/mL antibody [1]: 1260 pg/mL; hIL-6 (pg/mL), 30 ug/mL antibody [1]: 1610 pg/mL
3 | H0868L0581 (antibody, V domains shown) VH: QVQLVESGGGLVQPGRSLRLSCAASGFKFSNVWMHWVRQAPGKGLEWVAQIKDKYNAYAAYYAPSVKGRFTISRDDSKNSIYLQMNSLKTEDTAVYYCHYVHYASASTLLPAFGVDAWGQGTTVTVSS VL: DIVMTQSPLSLPVTPGEPASISCQPSQEVVHMNRNTYLHWYQQKPGQAPRLLIYKVSNRFPGVPDRFSGSGSGTDFTLKISRVEAEDVGVYYCAQGTSHPFTFGQGTKLEIK | 108 nM | 173 nM | –
4 | H1647L0581 (antibody, V domains shown, also called H1647L0581 (CD137); Anti-CD137 variant) VH: QVQLVESGGGLVQPGRSLRLSCAASGFKFSNTWFHWVRQAPGKGLEWVAQIKDYYNDYAAYYAPSVKGRFTISRDDSKNSIYLQMNSLKTEDTAVYYCHYVHYASASTLLPAEGVDAWGQGTTVTVSS VL: DIVMTQSPLSLPVTPGEPASISCQPSQEVVHMNRNTYLHWYQQKPGQAPRLLIYKVSNRFPGVPDRFSGSGSGTDFTLKISRVEAEDVGVYYCAQGTSHPFTFGQGTKLEIK | 60.5 nM | – | –
5 | H1572L0581 (antibody, V domains shown) VH: QVQLVESGGGLVQPGRSLRLSCAASGFKFSNVWFHWVRQAPGKGLEWVAQIKDKYNAYAAYYAPSVKGRFTISRDDSKNSIYLQMNSLKTEDTAVYYCHYVHYASASTLLPAEGVDAWGQGTTVTVSS VL: DIVMTQSPLSLPVTPGEPASISCQPSQEVVHMNRNTYLHWYQQKPGQAPRLLIYKVSNRFPGVPDRFSGSGSGTDFTLKISRVEAEDVGVYYCAQGTSHPFTFGQGTKLEIK | 52.1 nM | 286 nM | –
6 | H1579L0581 (antibody, V domains shown) VH: QVQLVESGGGLVQPGRSLRLSCAASGFKFSHVWFHWVRQAPGKGLEWVAQIKDKYNAYAAYYAPSVKGRFTISRDDSKNSIYLQMNSLKTEDTAVYYCHYVHYASASTLLPAFGVDAWGQGTTVTVSS VL: DIVMTQSPLSLPVTPGEPASISCQPSQEVVHMNRNTYLHWYQQKPGQAPRLLIYKVSNRFPGVPDRFSGSGSGTDFTLKISRVEAEDVGVYYCAQGTSHPFTFGQGTKLEIK | 275 nM | 273 nM | –

Now from value to binder, other results behind:

Row | Kd [2] | Kd [3] | Binder | other results
7 | – | 110 nM | H0883 (antibody, V domains shown, also called H0883 (CD3); H883) VH: QVQLVESGGGLVQPGRSLRLSCAASGFTFSNAWMHWVRQAPGKGLEWVAQIKDKGNAYAAYYAPSVKGRFTISRDDSKNSIYLQMNSLKTEDTAVYYCRYVHYASASTLLPAFGVDAWGQGTTVTVSS VL: DIVMTQSPLSLPVTPGEPASISCQASQELVHMNRNTYLHWYQQKPGQAPRLLIYKVSNRFPGVPDRFSGSGSGTDFTLKISRVEAEDVGVYYCAQGTSVPFTFGQGTKLEIK | –
8 | 85 nM | 123 nM | H1571L0581 (antibody, V domains shown) VH: QVQLVESGGGLVQPGRSLRLSCAASGFKFSNVWFHWVRQAPGKGLEWVAQIKDKYNAYATYYAPSVKGRFTISRDDSKNSIYLQMNSLKTEDTAVYYCHYVHYASASTLLPAFGVDAWGQGTTVTVSS VL: DIVMTQSPLSLPVTPGEPASISCQPSQEVVHMNRNTYLHWYQQKPGQAPRLLIYKVSNRFPGVPDRFSGSGSGTDFTLKISRVEAEDVGVYYCAQGTSHPFTFGQGTKLEIK | –
9 | 195 nM | 57 nM | H1595L0581 (antibody, V domains shown) VH: QVQLVESGGGLVQPGRSLRLSCAASGFKFSNTWMHWVRQAPGKGLEWVAQIKDKYNAYAAYYAPSVKGRFTISRDDSKNSIYLQMNSLKTEDTAVYYCHYIHYASASTLLPAFGVDAWGQGTTVTVSS VL: DIVMTQSPLSLPVTPGEPASISCQPSQEVVHMNRNTYLHWYQQKPGQAPRLLIYKVSNRFPGVPDRFSGSGSGTDFTLKISRVEAEDVGVYYCAQGTSHPFTFGQGTKLEIK | –
10 | 208 nM | 20.2 nM | H0888L0581 (antibody, V domains shown, Dual-Ig, captured by anti-human Fc; also called dBBDu183H0888/dBBDu072L0581) VH: QVQLVESGGGLVQPGRSLRLSCAASGFKFSNVWMHWVRQAPGKGLEWVAQIKDKWNAYAAYYAPSVKGRFTISRDDSKNSIYLQMNSLKTEDTAVYYCHYIHYASASTLLPAFGIDAWGQGTTVTVSS VL: DIVMTQSPLSLPVTPGEPASISCQPSQEVVHMNRNTYLHWYQQKPGQAPRLLIYKVSNRFPGVPDRFSGSGSGTDFTLKISRVEAEDVGVYYCAQGTSHPFTFGQGTKLEIK | –
11 | 70.6 nM | 156 nM | H1573L0581 (antibody, V domains shown) VH: QVQLVESGGGLVQPGRSLRLSCAASGFKFSNVWFHWVRQAPGKGLEWVAQIKDYYNAYAAYYAPSVKGRFTISRDDSKNSIYLQMNSLKTEDTAVYYCHYVHYASASTLLPAFGVDAWGQGTTVTVSS VL: DIVMTQSPLSLPVTPGEPASISCQPSQEVVHMNRNTYLHWYQQKPGQAPRLLIYKVSNRFPGVPDRFSGSGSGTDFTLKISRVEAEDVGVYYCAQGTSHPFTFGQGTKLEIK | –
